Measured values taken from PMC7467569, “The Progesterone 5β-Reductase/Iridoid Synthase Family: A Catalytic Reservoir for Specialized Metabolism across Land Plants” (ACS Chemical Biology, 2020).

Assays:
Experiment in all cases: purified protein
[1] = test system: CC(=O)[C@H]1CC[C@H]2[C@@H]3CCC4=CC(=O)CC[C@]4(C)[C@H]3CC[C@]12C; format: biochemical, Digitalis lanata; conditions: 250 μM NADPH, 50 mM HEPES/NaOH pH 7.0, 100 mM NaCl, 25 °C, 1.5% ethanol
[2] = test system: CC(=O)[C@H]1CC[C@H]2[C@@H]3CCC4=CC(=O)CC[C@]4(C)[C@H]3CC[C@]12C; format: biochemical, Digitalis purpurea; conditions: 250 μM NADPH, 50 mM HEPES/NaOH pH 7.0, 100 mM NaCl, 25 °C, 1.5% ethanol
C/C(C=O)=C\CC/C(C)=C/C=O = conditions: 250 μM NADPH, 50 mM HEPES/NaOH pH 7.0, 100 mM NaCl, 25 °C, 0.1% tetrahydrofuran
[3] = test system: CC(=O)[C@H]1CC[C@H]2[C@@H]3CCC4=CC(=O)CC[C@]4(C)[C@H]3CC[C@]12C; conditions: 250 μM NADPH, 50 mM HEPES/NaOH pH 7.0, 100 mM NaCl, 25 °C, 1.5% ethanol

**Q.** For “Digitalis lanata 1 (PRISE1, progesterone 5β-reductase) (Digitalis lanata)”, which Km [1] is on record?
**A.** 6.5 ± 2.0 µM

**Q.** “Digitalis purpurea 2 (Digitalis purpurea)” was tested. Which Km [2] did it give?
**A.** 6.3 ± 1.9 µM

**Q.** What does the source list for “Physcomitrella patens PRISE (Physcomitrium patens)”?
**A.** Km (C/C(C=O)=C\CC/C(C)=C/C=O): 31.3 ± 8.6 µM; kcat (C/C(C=O)=C\CC/C(C)=C/C=O): 0.066 ± 0.005 s⁻¹; kcat/Km (C/C(C=O)=C\CC/C(C)=C/C=O): 2100 M⁻¹ s⁻¹; Km [3]: 9.5 ± 3.1 µM
